Laboratory results as given in patent publication CN114409766A (AGRICULTURAL UNIV IN CHINA, dated 2022).

Target: T1, EBV病毒颗粒 (gp350 on EB virus particles) (Epstein-Barr virus, UniProt P03200 1-907)
T1 construct: also called EBV颗粒; UV-EBV病毒颗粒
T1 sequence (looked up): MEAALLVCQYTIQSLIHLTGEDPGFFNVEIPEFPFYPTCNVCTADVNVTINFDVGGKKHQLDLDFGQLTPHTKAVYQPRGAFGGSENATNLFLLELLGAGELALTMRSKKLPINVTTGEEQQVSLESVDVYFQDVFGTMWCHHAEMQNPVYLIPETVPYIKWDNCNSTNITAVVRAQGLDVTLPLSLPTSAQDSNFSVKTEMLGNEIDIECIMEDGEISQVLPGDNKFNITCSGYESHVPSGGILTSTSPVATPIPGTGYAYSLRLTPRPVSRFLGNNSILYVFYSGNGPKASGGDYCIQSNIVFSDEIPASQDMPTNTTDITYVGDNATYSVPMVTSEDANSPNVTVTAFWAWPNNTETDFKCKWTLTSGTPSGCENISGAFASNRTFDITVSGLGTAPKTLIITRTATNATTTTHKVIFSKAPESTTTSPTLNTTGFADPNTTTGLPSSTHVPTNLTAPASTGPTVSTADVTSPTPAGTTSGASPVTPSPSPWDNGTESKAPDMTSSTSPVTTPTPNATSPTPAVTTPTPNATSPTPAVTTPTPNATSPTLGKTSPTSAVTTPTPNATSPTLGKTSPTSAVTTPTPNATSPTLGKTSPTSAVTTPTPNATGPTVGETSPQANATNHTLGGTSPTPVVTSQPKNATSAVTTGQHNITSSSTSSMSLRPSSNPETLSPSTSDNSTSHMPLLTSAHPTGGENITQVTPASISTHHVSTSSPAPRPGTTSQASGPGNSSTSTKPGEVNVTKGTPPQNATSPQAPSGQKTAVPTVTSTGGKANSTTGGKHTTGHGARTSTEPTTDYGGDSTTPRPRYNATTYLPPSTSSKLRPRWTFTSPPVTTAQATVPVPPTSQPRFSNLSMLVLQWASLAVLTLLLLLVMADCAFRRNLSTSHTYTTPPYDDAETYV
Assay: ELISA, EBV particles coated, titrated binder

Binder | binding result
单克隆抗体R1 (scFv fused to FLAG tag or hFc) (scFv, also called R1抗体; 单抗R1) scFv: QSVKESEGGLFKPTDTLTLTCTVSGFSLSSNAISWVRQAPGNGLEYIGYISYRGNTYYASWARSRSTITRNTNENTVTLKMTRLTAADTATYFCARIRSYSRANGHADGFDPWGPGTLVTVSSGGGGSGGGGSGGGGSDVVMTQTPSSVSAAVGGTVTINCQASESISNLLAWYQQKPGQPPKLLIYGASNLESGVPSRFRGSGSGTQFTLTISGVKDEDVATYYCQSGRYAAGATFGAGTNVEIK | binds
单克隆抗体R9 (scFv fused to FLAG tag or hFc) (scFv) scFv: QSVKESEGGLFKPTDTLTLTCTVSGSSLRSYGVSWVRQAPGTGLEWIGAIGRSGSAYYASWAKSRSTITRNTNDNTVTLKMTSLTAADTATYFCARAYFGNSIGPFNIWGPGTLVTVSSGGGGSGGGGSGGGGSAIVLTQTPSSVSAPVGGTVTINCQASQSVSNLLAWYQQKPGQPPKLLIYGASNLESGVPSRFRGSGSGTQFTLTISGVKAEDVAAYYCHQHSSFPLTFGAGTKVEIK | binds
